Results: patent US20260085122A1 (BEONE MEDICINES I, published 2026)

Tests used:
[1] = molecular target: 2Ig-B7H3 (Cat: B73-H5253) (UniProt Q5ZPR3 29-245); assay: SPR (Biacore 8K, 25 C), B7H3 captured by anti-human IgG, VHH as analyte, 1:1 model
Experimental: (§1) 4Ig-B7H3 (Cat: 11188-H02H) and 2Ig-B7H3 (Cat: B73-H5253) proteins were coupled onto a CM5 Biocore sensor derivatized via amine coupling with anti-human IgG antibody (Cat: 29234600). The VHH fragments were then flowed through at a rate at 40 μl/min. Association of VHH to B7H3 proteins was monitored for 120 seconds and disassociation of VHH in buffer 1×HBS (0.01 M HEPES, pH 7.4, 0.15 M NaCl, 3 mM EDTA, 0.05% v/v surfactant P20) was monitored for more than 120 seconds.
(§2) Ka and Kd were determined by fitting the real-time sensorgram to a 1:1 binding model using Biacore Insight Evaluation software. Binding disassociation equilibrium constants (KD) were calculated from kinetics rates as follows: […]

[2] = molecular target: T1, 4Ig-B7H3 (Cat: 11188-H02H) (human); assay: as above
T1 construct: also called B7H3-4IG; 4Ig-B7H3 proteins
T1 sequence (Q5ZPR3 29-461): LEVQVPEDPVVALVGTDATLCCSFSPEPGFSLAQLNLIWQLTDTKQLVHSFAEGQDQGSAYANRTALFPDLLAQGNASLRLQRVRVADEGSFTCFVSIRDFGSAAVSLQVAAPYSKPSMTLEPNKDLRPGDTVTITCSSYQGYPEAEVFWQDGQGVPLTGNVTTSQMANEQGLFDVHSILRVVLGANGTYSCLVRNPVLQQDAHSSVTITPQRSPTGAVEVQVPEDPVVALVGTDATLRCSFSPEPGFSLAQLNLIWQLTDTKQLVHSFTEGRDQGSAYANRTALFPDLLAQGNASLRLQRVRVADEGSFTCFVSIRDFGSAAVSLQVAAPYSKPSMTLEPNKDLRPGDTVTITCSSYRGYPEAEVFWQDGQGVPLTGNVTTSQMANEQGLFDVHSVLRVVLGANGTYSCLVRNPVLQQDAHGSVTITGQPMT
Experimental: as §1, §2

2Ig-B7H3 (Cat: B73-H5253), sequence (Q5ZPR3 other isoform, or with tags, fused parts or gaps): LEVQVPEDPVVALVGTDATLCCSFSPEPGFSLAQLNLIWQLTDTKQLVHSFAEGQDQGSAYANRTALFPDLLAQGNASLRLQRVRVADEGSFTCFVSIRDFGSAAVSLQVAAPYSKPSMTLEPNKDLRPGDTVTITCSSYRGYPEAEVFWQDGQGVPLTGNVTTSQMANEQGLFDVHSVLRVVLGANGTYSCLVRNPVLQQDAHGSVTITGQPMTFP

B1: VHH1_C001 (VHH)
VHH: EVQLVESGGGLVQPGGSLRLSCAASPRTFQTYFMGWFRQAPGKELEWVSVINWSGGTSYYKDSVKGRFTISRDNSKNTLYLQMNSLRAEDTAVYYCAAKGSGTYDREGEYDYWGQGTLVTVSS
notes: Monovalent VHH fragment with C-terminal 6xHis-tag, no Fc
Kd [1]: 0.0941 µM | koff [1]: 0.27 s⁻¹ | kon [1]: 2.87e+06 M⁻¹ s⁻¹ | Kd [2]: 0.00741 µM | koff [2]: 0.00677 s⁻¹ | kon [2]: 914000 M⁻¹ s⁻¹

B2: VHH1_C002 (VHH)
VHH: EVQLLESGGGLVQPGGSLRLSCAASGFTFSDYHMSWVRQAPGKGLEWVSGILNTGLSPTYAATVTGRFTISRDNSKNTLYLQMNSLRAEDTAVYYCAQGYYRATPSQANRGQGTLVTVSS
notes: as for B1
Kd [1]: 0.0433 µM | koff [1]: 0.129 s⁻¹ | kon [1]: 2.99e+06 M⁻¹ s⁻¹ | Kd [2]: 0.00389 µM | koff [2]: 0.0096 s⁻¹ | kon [2]: 2.47e+06 M⁻¹ s⁻¹
